Experimental data as given in article doi:10.1101/2023.06.13.544862 (bioRxiv, 2023).
Ends that are not written are not given here. Me3 = trimethyl-lysine; Me2 = dimethyl-lysine

B1: NOP16 aa 25-32 peptide, di-methylated K29 (peptide, UniProt Q9Y3C1 25-32, looked up)
peptide: NARRK(Me2)AAP
modifications: also: biotin
B2: NOP16 aa 25-32 peptide, mono-methylated K29 (peptide, UniProt Q9Y3C1 25-32, looked up)
peptide: NARRK(Me)AAP
modifications: also: biotin
B3: NOP16 aa 25-32 peptide, unmethylated K29 (peptide, UniProt Q9Y3C1 25-32, looked up)
peptide: NARRKAAP
modifications: also: biotin
B4: 6xHis-tagged NOP16 (natural protein, human, UniProt Q9Y3C1 1-178, looked up)
chain: MPKAKGKTRRQKFGYSVNRKRLNRNARRKAAPRIECSHIRHAWDHAKSVRQNLAEMGLAVDPNRAVPLRKRKVKAMEVDIEERPKELVRKPYVLNDLEAEASLPEKKGNTLSRDLIDYVRYMVENHGEDYKAMARDEKNYYQDTPKQIRSKINVYKRFYPAEWQDFLDSLQKRKMEVE
B5: NOP16 aa 25-32 peptide, tri-methylated K29 (peptide, UniProt Q9Y3C1 25-32, looked up)
peptide: NARRK(Me3)AAP
modifications: also: biotin

Tests used:
[1] = molecular target: JMJD3 JmjC domain labelled for microscale thermophoresis (UniProt O15054 1339-1502, labeled with Protein Labeling kit RED-NHS); test: MST
[2] = molecular target: GST-tagged EED, wild type (human, UniProt O75530 1-441); test: pull-down
GST-tagged EED, wild type, sequence (O75530 whole entry): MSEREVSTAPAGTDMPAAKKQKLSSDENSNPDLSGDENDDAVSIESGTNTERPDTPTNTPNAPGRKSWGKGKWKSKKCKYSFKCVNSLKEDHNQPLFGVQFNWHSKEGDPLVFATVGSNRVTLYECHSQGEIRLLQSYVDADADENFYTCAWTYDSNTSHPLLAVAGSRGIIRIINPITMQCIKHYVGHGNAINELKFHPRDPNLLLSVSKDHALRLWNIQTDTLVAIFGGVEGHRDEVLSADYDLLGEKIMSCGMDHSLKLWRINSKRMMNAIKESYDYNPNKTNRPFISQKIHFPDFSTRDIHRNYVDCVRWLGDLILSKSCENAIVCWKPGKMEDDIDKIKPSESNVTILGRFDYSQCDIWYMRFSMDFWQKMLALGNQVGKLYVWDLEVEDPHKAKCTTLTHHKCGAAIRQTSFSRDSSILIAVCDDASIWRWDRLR

JMJD3 JmjC domain labelled for microscale thermophoresis, sequence (O15054 1339-1502): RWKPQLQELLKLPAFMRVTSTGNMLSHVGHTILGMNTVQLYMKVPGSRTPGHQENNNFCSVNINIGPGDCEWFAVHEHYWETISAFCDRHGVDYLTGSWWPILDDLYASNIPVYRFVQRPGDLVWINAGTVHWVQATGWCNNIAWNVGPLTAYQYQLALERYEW

| Binder | Kd [1] | binding result [2] |
| --- | --- | --- |
| B1 | 306 ± 101 µM |  |
| B2 | 347 ± 224 µM |  |
| B3 | 103 ± 65.2 µM |  |
| B4 |  | binds |
| B5 | 32.1 ± 27.4 µM |  |
